Laboratory results taken from publication PMC9896928.

Molecular target: glutathione transferase (GST) tag-fused cGAS
Experiment: SEC + other: fluorescence correlation spectroscopy

Q: How did the stoichiometry N turn out when “glutathione transferase (GST) tag-fused cGAS (enzyme)” was run?
A: 2
